Results reported in patent publication US20230295313A1 (published 2023).
Numbering of substitutions follows the chain as printed.

Key:
[1] = target: T1, human IL1RAP extracellular domain protein (GK002, HuIL1Racp-ECD-His6) (human, UniProt Q9NPH3 21-367); experiment: SPR (Biacore T200), mAb captured by anti-Fc IgG, His-tagged human IL1RAP ECD as analyte
T1 construct: also called His-tagged human IL-1RAP extracellular domain protein; HuIL1RAP-ECD-His6 (GK002)
T1 sequence: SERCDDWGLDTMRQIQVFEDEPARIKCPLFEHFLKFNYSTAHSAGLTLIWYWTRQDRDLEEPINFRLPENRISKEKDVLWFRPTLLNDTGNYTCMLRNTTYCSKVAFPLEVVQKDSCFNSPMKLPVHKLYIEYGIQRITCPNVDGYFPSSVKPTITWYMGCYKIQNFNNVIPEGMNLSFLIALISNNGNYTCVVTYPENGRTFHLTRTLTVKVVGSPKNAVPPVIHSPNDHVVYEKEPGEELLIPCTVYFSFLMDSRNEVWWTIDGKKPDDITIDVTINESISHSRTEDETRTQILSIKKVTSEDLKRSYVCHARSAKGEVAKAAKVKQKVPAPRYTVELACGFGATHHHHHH

[2] = target: T2, human IL1RAP on the cell surface (HEK293/IL1RAP cells; IL1RAP-expressing OCI-AML-1 cells) (human, UniProt Q9NPH3 21-570); experiment: cell-based or functional assay
T2 sequence: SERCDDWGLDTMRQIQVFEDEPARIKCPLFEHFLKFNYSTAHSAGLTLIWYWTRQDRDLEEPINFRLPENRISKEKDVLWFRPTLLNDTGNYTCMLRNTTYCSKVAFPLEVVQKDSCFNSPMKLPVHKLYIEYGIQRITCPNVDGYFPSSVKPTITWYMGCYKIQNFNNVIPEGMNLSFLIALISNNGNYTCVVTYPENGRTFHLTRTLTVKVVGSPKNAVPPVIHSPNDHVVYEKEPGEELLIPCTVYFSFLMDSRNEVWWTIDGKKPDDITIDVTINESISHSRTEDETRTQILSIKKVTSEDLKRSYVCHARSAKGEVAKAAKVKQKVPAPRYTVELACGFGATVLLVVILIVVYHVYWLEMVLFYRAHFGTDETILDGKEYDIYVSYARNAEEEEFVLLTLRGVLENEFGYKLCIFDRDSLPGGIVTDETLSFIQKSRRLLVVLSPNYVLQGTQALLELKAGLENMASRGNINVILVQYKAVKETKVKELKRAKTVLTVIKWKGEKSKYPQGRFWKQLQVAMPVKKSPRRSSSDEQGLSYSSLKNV

[3] = target: T2, human IL1RAP on the cell surface …; experiment: cell-based or functional assay; remark: listed apart in the source
[4] = target: T3, Soluble Human IL1RAP (sIL1RAP) (human, UniProt Q9NPH3 21-367); experiment: SPR, antibody captured via Protein A on CM5 chip, 25° C., 1:1 fit, average of 3 runs
[5] = target: T4, Cyno IL1RAP ECD (cynomolgus monkey, UniProt A0A2K5X5J5 21-367); experiment: as above
T4 construct: extracellular domain; Analyte in the GSK3903371A SPR study; also called cynomolgus monkey IL1RAP ECD
T4 sequence: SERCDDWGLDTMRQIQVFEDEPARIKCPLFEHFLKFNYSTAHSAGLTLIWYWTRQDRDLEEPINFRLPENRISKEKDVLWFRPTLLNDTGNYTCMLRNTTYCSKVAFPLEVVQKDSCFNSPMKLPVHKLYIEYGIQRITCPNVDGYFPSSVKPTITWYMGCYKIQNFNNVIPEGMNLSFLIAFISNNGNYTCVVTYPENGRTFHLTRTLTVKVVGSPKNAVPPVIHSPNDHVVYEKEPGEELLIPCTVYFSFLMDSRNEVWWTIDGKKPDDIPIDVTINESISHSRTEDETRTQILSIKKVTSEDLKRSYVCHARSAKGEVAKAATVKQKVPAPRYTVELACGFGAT

[6] = target: T5, Human IL1RAP ECD (human, UniProt Q9NPH3 21-367); experiment: as above
T5 construct: Analyte in the GSK3903371A SPR study; also called human IL1RAP extracellular domain (ECD); recombinant human IL1RAP ECD
T5 sequence: T4 sequence with F183L, P273T, T326K

[7] = target: T3, Soluble Human IL1RAP (sIL1RAP); experiment: SPR, antibody captured via Protein A on CM5 chip, 37° C., 1:1 fit, average of 2 runs
[8] = target: T4, Cyno IL1RAP ECD; experiment: as above
[9] = target: T5, Human IL1RAP ECD; experiment: as above
[10] = target: T6, cyno IL1RAP (GK017, CynoIL1Racp-ECD-His6) (cyno, UniProt A0A2K5X5J5 21-367); experiment: SPR (Biacore T200), mAb captured by anti-human IgG Fc on CM5, ECD-His6 as analyte, 1:1 fit
T6 construct: extracellular domain; also called CynoIL1RAP-ECD-His6 (GK017); cyno IL1RAP-ECD-His6 protein
T6 sequence: T1 sequence with L183F, T273P, K326T

[11] = target: T1, human IL1RAP extracellular domain …; experiment: as above

B1: murine mAb067 (antibody, V domains shown)
VH: QVKLHQSGAELAKPGASVKMSCKASGYTFNSYWIHWVKQRPGQGLEWIGYNNPTSGYSEYNQKFTDKATLSADKSSSTAYMQLSSLTSEDSAVYYCVREYGDLFAYWGQGTLVTVSA
VL: NIVMTQSPKSMSMSVGERVTLSCKASENVGYSVSWFQQKPDQSPKLLIYGASNRYTGVPDRFTGSGSATDFTLTISTVQAEDLADYHCGQIYIYPYTFGGGTKLEIK
notes: Murine anti-human IL1RAP mAb
[1]
  Kd: 0.3 nM
  koff: 0.000102 s⁻¹
  kon: 340000 M⁻¹ s⁻¹

B2: mAb063 (antibody, V domains shown)
VH: EVQLQQSGPELVKPGASVKISCKASGYTFTDYYMNWVKQSHGKSLEWIGHINPNSGSTTYTEKFKDKATLTVDKSSSTAYMELRSLTSDDSAVYYCVRRIGKNWHCDVWGTGTTVTVSS
VL: DIVLTQSPASLAVSLGQRATISCRASESVNFHGTHLMHWYQQKPGQAPKLLIYAASNLDSGVPARFSGSGSETDFTLNIHPVEEEDAATYFCQQSIEDPFTFGSGTYLEIK
notes: Murine anti-human IL1RAP mAb; also called murine mAb063
[1]
  Kd: 0.0496 nM
  koff: 2.12e-05 s⁻¹
  kon: 426000 M⁻¹ s⁻¹

B3: murine mAb048 (antibody, V domains shown)
VH: QVQLQQPGADLVKPGASVKLSCKAYGYTFFSYWMHWVRQRPGQGLEWIGMIHPNSGTTNNNEKFKSKATLTVDKSFSTAYMQLSSLTSEDSAVYYCARGYSNYDFDYWGQGTILTVSS
VL: DIKMTQFPSSMYASLGERVTITCKASQDINTYLIWIQQKPGKSPKTLIYRANRLADGVPSRFSGSGSGQDSSLTISSLEHEDMGIYYCLQYDEFPYTFGGGTKLEIK
notes: Murine anti-human IL1RAP mAb
[1]
  Kd: 0.357 nM
  koff: 4.48e-05 s⁻¹
  kon: 125000 M⁻¹ s⁻¹

B4: GSK3903371A (antibody, human IgG1, kappa, V domains shown)
VH: EVQLVQSGAEVKKPGSSVKVSCKASGYTFNSYWIHWVRQAPGQGLEWMGYNNPTSGYSEYNQKFTDRVTITADKSTSTAYMELSSLRSEDTAVYYCAREYGDLFAYWGQGTLVTVSS
VL: AIQMTQSPSSLSASVGDRVTITCKASENVGYSVSWFQQKPGKSPKLLIYGASNRYTGVPSRFSGSGSATDFTLTISSLQPEDFATYHCGQIYIYPYTFGGGTKVEIKR
modifications: heavy chain constant region afucosylated (expressed in FUT8-knockout POTELLIGENT CHO cells)
notes: Humanized IgG1 kappa; also called afucosylated anti-IL1RAP mAb GSK3903371A
[2]
  ADCC EC50, PBMC effector cells, OCI-AML-1 target cells, experiment 1: 0.0633 nM
  ADCC EC50, PBMC effector cells, OCI-AML-1 target cells, experiment 2: 0.0589 nM
  ADCC EC50, PBMC effector cells, OCI-AML-1 target cells, experiment 3: 0.0705 nM
  ADCC EC50, geometric mean (n=3), OCI-AML-1 target cells: 0.0641 nM
[3]
  CDC EC50, HEK293/IL1RAP target cells, experiment 1: 6.16 nM
  CDC EC50, HEK293/IL1RAP target cells, experiment 2: 5.9 nM
[4]
  Kd: 2.03 nM
  koff: 0.000199 s⁻¹
[5]
  Kd: 1.53 nM
  koff: 0.000226 s⁻¹
[6]
  Kd: 1.61 nM
  koff: 0.000268 s⁻¹
[7]
  Kd: 3.58 nM
  koff: 0.00101 s⁻¹
[8]
  Kd: 3.47 nM
  koff: 0.000946 s⁻¹
[9]
  Kd: 2.54 nM
  koff: 0.000942 s⁻¹

B5: mAb067-12 (humanized) (antibody, human IgG1, kappa, V domains shown)
VH: B4 VH
VL: B4 VL
notes: Fucosylated humanized IgG1; same chains as GSK3903371A; also called HumAb67-12; HumAb067-12
[3]
  CDC EC50, HEK293/IL1RAP target cells, experiment 1: 5.13 nM
  CDC EC50, HEK293/IL1RAP target cells, experiment 2: 4.7 nM
[10]
  Kd: 0.899 nM
  koff: 0.00015 s⁻¹
  kon: 167000 M⁻¹ s⁻¹
[11]
  Kd: 0.953 nM
  koff: 0.000161 s⁻¹
  kon: 169000 M⁻¹ s⁻¹

B6: murine mAb117 (antibody, V domains shown)
VH: QAYLQQSGAELVRPGASVKMSCKASGYTFTSYNMHWVKQSPRQGLEWVGVFYLGNGDTSYNEKFKGKATLTVDKSSSTAYMQLSSLTSEDSAVYFCARPGGYANWYFDVWGTGTTVTVSS
VL: DIVMTQSQKFMSTSVGDWVSVTCKASQNVGTEVSWYQQKPGQSPNTLIYSASYRHSGVPDRFTGSGSGTEFTLTITNVQSEDLADYFCQQYNSFPLTFGAGTKLDLK
notes: Murine anti-human IL1RAP mAb
[1]
  Kd: 0.193 nM
  koff: 4.28e-05 s⁻¹
  kon: 222000 M⁻¹ s⁻¹

B7: murine mAb001 (antibody, V domains shown)
VH: QVQLQQPGAELVRPGSSVKLSCKASGYTFTSYWMDWVKQRPGQGLEWIGNIYPSDSKTHYNQKFKDKATLTVDKSSSTAYMQLSSLTSEDSAVYYCARDYYGSIGMDYWGQGTSVTVSS
VL: DIQMTQSPSSLSASLGERVSLTCRASQEISGYLSWLQQKPDGTIKRLIYAASTLDSGVPKRFSGSRSGSDYSLTISSLESEDFADYYCLQYASYPWTFGGGTKLEIK
notes: Murine anti-human IL1RAP mAb
[1]
  Kd: 4.97 nM
  koff: 0.000282 s⁻¹
  kon: 56700 M⁻¹ s⁻¹
